Tests used:
[1] = target: T1, ubiquitin (UniProt P0CG47 1-76); experiment: ITC
[2] = target: T1, ubiquitin; experiment: NMR titration

Kd [1]: ~49 µM
Kd [2]: ~27 µM
B1: human REV1 (932–1039) (domain or fragment, UniProt Q9UBZ9 932-1039, looked up)
chain: VPSPSQLDQSVLEALPPDLREQVEQVCAVQQAESHGDKKKEPVNGCNTGILPQPVGTVLLQIPEPQESNSDAGINLIALPAFSQVDPEVFAALPAELQRELKAAYDQR

— publication PMC6043352 (Journal of molecular biology, 2018)
